B1: human creatine kinase M type subunit (enzyme)
chain: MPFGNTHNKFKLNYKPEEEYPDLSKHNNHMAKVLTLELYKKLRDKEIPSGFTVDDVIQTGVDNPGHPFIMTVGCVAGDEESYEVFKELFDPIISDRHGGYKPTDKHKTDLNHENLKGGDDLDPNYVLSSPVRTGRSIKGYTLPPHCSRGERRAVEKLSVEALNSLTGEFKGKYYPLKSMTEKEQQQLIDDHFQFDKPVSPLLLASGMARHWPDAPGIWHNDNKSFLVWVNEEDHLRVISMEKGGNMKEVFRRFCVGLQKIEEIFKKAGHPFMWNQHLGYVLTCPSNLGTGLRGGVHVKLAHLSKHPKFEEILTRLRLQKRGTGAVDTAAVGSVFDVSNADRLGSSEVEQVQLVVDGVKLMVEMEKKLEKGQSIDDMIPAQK
notes: Co-expressed with the CK-B subunit from the single plasmid pTRP-hCKMB; also called CK-M subunit; CK-M
B2: human creatine kinase B type subunit (enzyme)
chain: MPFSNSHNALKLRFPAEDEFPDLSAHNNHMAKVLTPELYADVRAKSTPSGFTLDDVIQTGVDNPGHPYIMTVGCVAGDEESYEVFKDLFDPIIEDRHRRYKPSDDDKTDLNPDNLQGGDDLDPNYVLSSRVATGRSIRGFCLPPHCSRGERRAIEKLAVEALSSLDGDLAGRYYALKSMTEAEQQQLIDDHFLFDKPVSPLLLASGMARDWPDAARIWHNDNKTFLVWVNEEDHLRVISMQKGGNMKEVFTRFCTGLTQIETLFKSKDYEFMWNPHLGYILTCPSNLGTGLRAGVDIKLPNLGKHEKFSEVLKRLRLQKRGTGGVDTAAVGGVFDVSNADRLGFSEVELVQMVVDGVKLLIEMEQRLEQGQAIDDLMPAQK
notes: Co-expressed with the CK-M subunit from the single plasmid pTRP-hCKMB; also called CK-B subunit; CK-B

In data set [1] the target is B2. Nature of the data set: co-expression in E. coli; Q-Sepharose separation of dimeric CK isozymes; MB fraction purified to electrophoretic homogeneity by Sephacryl-S200HR gel filtration. As to the method:
(§1) The cells thus obtained were collected and suspended in a 50 mM phosphate buffer (pH 7.5) containing 5 mM of mercaptoethanol. After disrupting the cells by ultrasonication, the supernatant was referred to as a recombinant CK extract. From this extract, CK was recovered as a precipitate by 70%-saturation ammonium sulfate salting out. The precipitate thus salted out was dissolved in 1.5 M ammonium sulfate (pH 7.5) and subjected to hydrophobic column chromatography by using a Buthyl-Toyopearl C650 gel (manufactured by Tosoh). The CK activity was eluted at 1.5-0 M-gradient (pH 7.5) ammonium sulfate elution. The CK activity elution peaks were combined, concentrated by using an ultrafiltration membrane (YM10, manufactured by Amicon) and then dialyzed against a 50 mM phosphate buffer (pH 7.5). Fractions eluted by the hydrophobic chromatography were adsorbed by a Q-Sepharose column (manufactured by Pharmacia, Sweden) and thus it was attempted to separate CK isozymes.
(§2) As a result, the CK activity was separated into the MM type (unadsorbed fraction), the MB type (elution peak 1) and the BB type (elution peak 2). […] It was thus found out that CK-MB was expressed at a high dose in this recombinant strain. It could be also confirmed that three human recombinant CK isozymes could be prepared by using this expression strain alone. […]
In general terms: SEC sorts molecules by how far they enter the pores of the column.

Data set [2] deals with the molecule itself. In words: co-expression in E. coli; Q-Sepharose separation of dimeric CK isozymes (homodimer). As to the method:
as §1, §2

Consider B1, for which the binding result in data set [1] and in data set [2] was “binds” in each case.
For B2, the binding result in data set [2] is given as “binds”.

Source of the values: US20030175929A1 (ORIENTAL YEAST, published 2003).
